Results reported in patent US20050181995A1 (NEC SOFT, published 2005).

T1: Flt-4 (VEGF receptor type 3) (UniProt P35916 25-776)
T1 construct: Immobilised on CM5 chip; printed without an IgG suffix; also called VEGF receptor 3
T1 sequence: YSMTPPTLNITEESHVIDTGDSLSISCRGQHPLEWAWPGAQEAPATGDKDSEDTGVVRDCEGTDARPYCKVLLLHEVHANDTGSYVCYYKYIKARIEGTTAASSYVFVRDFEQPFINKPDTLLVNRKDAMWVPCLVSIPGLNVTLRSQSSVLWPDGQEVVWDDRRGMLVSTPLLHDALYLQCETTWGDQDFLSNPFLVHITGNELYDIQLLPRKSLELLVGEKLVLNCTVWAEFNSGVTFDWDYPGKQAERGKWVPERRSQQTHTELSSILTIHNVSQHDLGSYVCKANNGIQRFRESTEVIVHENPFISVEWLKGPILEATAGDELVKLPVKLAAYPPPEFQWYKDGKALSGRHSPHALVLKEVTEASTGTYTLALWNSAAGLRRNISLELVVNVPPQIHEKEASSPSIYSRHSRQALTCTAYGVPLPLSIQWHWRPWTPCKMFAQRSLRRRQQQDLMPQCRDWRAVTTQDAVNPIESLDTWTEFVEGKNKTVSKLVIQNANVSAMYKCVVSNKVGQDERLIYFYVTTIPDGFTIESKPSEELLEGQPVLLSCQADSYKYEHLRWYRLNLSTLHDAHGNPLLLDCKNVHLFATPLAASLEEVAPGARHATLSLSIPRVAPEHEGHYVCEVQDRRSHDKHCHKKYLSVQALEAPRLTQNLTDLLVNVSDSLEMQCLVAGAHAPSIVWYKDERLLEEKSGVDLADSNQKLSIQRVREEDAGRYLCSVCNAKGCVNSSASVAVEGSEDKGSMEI

B1: VR-1 (VEGF-like protein purified from the venom of Daboia russelli russelli) (ligand)
chain: EVRPFLDVYQRSACQTRETLVSILQEHPDEISDIFRPSCVAVLRCSGCCTDESMKCTPVGKHTADIQIMRMNPRTHSSKMEVMKFMEHTACECRPRWKQGEPEGPKEPR
modifications: pyrrolidone ring at N-terminus (opened with methanol-hydrochloric acid for sequencing)
notes: also called VR-1 protein
B2: vammin (VEGF-like protein purified from the venom of Vipera ammodytes ammodytes) (ligand)
chain: EVRPFLEVHERSACQARETLVPILQEYPDEISDIFRPSCVAVLRCSGCCTDESLKCTPVGKHTVDLQIMRVNPRTQSSKMEVMKFTEHTACECRPRRKQGEPDGPKEKPR
modifications: pyrrolidone ring at N-terminus (opened with methanol-hydrochloric acid for sequencing)
notes: also called vammin protein
B3: HF (hypotensive factor from the venom of Vipera aspis aspis) (ligand)
chain: EVRPFLEVHERSACQARETLVSILQEYPDEISDIFRPSCVAVLRCSGCCTDESLKCTPVGKHTVDLQIMRVNPRTQSSKMEVMKFTEHTACECRPRRKQGEPDGPKEKPR
notes: also called HF protein

How the values were obtained:
[1] = biological target: T2, Flt-1-IgG (UniProt P17948 27-687); experiment: SPR (BIAcore 3000), receptor-IgG immobilised on CM5 chip
T2 construct: Immobilised on CM5 chip by amine coupling; also called Flt-1-lgG; Flt-1-lg; not shown: IgG part of the fusion

[2] = biological target: T3, KDR-IgG (UniProt P35968 20-764); experiment: SPR (BIAcore 3000), KDR-IgG immobilised on CM5 chip
T3 construct: Immobilised on CM5 chip by amine coupling; also called KDR-lgG; VEGF receptor 2; not shown: IgG part of the fusion

[3] = biological target: T3, KDR-IgG; experiment: SPR (BIAcore 3000), KDR-IgG immobilised on CM5 chip; kdiss/kass
Description: An apparatus for measurement based on surface plasmon resonance technique: BlAcore 3000 (Biosensor) was used to evaluate the properties of binding to and dissociation from a VEGF receptor as for a VEGF-like protein. Experiment for analysis of the receptor binding was conducted at 25° C. using an HBS buffer (10 mM HEPES, pH 7.4, 150 mM NaCl, 3 mM EDTA, 0.005% polysorbate 20). Flt-1-lgG and KDR-lgG were immobilized on a CM5 sensor chip using an amine coupling kit (Biosensor), respectively.
They were injected into a flow cell at a flow rate of 20 μL/min. A signal from a blank flow channel as a negative control was subtracted as a background signal from the signal from the sample flow channel, for background correction. In the association process, while injecting a solution with the above protein concentration on the sensor chip at the above flow rate, increase in the resonance signal was detected. In the dissociation process, while injecting the above buffer on the sensor chip at the above flow rate, decrease in the resonance signal was measured.
A rate constant for association (kₐₛₛ), a rate constant for dissociation (kdiss) and the maximum binding amount (Rₘₐₓ) for binding to a VEGF receptor in each VEGF-like protein were calculated using a BIA evaluation 3.1 curve fitting software (Biosensor). An apparent dissociation constant (Kd) was calculated as a ratio of the rate constants (kdiss/kₐₛₛ) from the calculated values.

[4] = biological target: T1, Flt-4 (VEGF receptor type 3); experiment: SPR (BIAcore 3000), receptor immobilised on CM5 chip

T3 sequence (P35968 20-764 limits assumed): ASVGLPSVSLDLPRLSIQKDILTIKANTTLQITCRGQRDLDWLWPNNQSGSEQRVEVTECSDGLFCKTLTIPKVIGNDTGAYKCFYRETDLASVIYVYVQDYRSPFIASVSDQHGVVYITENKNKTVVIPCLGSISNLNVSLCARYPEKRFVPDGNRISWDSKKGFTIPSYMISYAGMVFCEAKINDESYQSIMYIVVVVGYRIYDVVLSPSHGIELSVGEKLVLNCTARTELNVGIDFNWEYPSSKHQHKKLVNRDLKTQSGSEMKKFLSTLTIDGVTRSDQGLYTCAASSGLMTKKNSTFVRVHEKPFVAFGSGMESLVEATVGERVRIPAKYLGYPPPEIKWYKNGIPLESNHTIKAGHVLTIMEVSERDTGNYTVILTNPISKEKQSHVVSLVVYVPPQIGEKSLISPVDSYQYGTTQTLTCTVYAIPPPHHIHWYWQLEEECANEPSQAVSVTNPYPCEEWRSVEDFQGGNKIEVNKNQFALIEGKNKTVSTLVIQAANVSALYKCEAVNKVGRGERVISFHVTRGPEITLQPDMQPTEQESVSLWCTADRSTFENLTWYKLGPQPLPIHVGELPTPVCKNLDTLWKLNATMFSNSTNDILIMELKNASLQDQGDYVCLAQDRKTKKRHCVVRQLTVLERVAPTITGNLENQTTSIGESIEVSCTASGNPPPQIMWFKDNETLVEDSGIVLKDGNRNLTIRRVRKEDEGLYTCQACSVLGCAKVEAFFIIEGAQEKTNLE
T2 sequence (P17948 other isoform, or with tags, fused parts or gaps limits assumed): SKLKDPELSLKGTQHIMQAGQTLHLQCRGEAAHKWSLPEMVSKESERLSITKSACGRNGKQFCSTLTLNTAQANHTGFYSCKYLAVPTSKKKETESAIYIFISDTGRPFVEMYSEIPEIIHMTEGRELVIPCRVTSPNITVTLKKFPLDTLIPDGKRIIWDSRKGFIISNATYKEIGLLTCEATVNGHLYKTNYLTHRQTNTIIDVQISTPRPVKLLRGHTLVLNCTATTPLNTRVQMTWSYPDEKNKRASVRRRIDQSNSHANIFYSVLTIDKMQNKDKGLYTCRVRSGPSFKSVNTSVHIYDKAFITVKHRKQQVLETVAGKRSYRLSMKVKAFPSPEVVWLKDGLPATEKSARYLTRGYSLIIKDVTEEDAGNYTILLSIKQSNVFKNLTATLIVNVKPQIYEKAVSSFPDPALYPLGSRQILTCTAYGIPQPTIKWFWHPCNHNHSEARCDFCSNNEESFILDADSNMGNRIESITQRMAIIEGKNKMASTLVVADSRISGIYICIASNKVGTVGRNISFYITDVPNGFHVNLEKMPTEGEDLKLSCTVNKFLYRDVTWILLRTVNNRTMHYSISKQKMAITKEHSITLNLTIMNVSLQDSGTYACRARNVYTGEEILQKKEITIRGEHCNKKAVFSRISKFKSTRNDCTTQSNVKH

| Binder | binding result [1] | koff [2] [s⁻¹] | kon [2] [M⁻¹ s⁻¹] | Kd [3] [nM] | binding result [4] |
| --- | --- | --- | --- | --- | --- |
| B1 | no binding (tested: 3, 10 and 30 nM) | 1.29e-05 | 39000 | 0.332 | – |
| B2 | no binding (tested: 3, 10 and 30 nM) | 4.6e-06 | 11200 | 0.411 | no binding (tested: 500 nM) |
| B3 | no binding (tested: 3, 10 and 30 nM) | 9.6e-06 | 28800 | 0.334 | – |
